Reference: doi:10.1101/2022.06.01.494241 (bioRxiv, 2022)

Target: T1, μMASS^2A (rat)
T1 chain: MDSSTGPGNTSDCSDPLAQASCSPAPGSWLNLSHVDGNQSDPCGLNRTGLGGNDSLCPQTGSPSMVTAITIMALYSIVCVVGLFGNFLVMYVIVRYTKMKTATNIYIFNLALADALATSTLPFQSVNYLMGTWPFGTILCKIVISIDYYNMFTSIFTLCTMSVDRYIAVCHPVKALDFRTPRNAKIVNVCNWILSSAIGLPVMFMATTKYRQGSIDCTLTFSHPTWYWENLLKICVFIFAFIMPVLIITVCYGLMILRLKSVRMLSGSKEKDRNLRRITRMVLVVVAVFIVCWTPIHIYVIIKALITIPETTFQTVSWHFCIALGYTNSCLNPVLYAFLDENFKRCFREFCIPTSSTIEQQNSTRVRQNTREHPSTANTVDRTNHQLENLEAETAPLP
Assay: other fluorescence titration

YGGFMTSEKSQTPLVTLFKNAIIKNAYKKGE (peptide, UniProt P01189 237-267, looked up) [β-endorphin] gave a Kd of 1180 nM.
